According to patent US20250161408A1, “PEPTIDIC INHIBITORS OF AMYLOID SELF- AND CROSS-ASSEMBLY” (TECHNISCHE UNIVERSITÄT MÜNCHEN, priority 2022, published 2025):
Non-standard residues stand in square brackets, D forms with d. NMeF = CN[C@@H](Cc1ccccc1)C(=O)O; NMeL = CN[C@@H](CC(C)C)C(=O)O; NMeV = CN[C@H](C(=O)O)C(C)C; Nle = CCCC[C@H](N)C(=O)O

Key:
[1] = molecular target: islet amyloid polypeptide (IAPP) (human) (UniProt P10997)
[2] = molecular target: Aβ42 (Homo sapiens (Human)) (UniProt P05067)

islet amyloid polypeptide (IAPP) (human), sequence (P10997 34-70): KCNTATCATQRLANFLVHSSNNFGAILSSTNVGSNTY

B1: L3-LF (peptide)
peptide: H-QK[NMeL]V[NMeF]FAEDLLLNKGAIIGL[Nle]VGGVV-OH
SMILES: CCCC[C@H](NC(=O)[C@H](CC(C)C)NC(=O)CNC(=O)[C@@H](NC(=O)[C@@H](NC(=O)[C@H](C)NC(=O)CNC(=O)[C@H](CCCCN)NC(=O)[C@H](CC(N)=O)NC(=O)[C@H](CC(C)C)NC(=O)[C@H](CC(C)C)NC(=O)[C@H](CC(C)C)NC(=O)[C@H](CC(=O)O)NC(=O)[C@H](CCC(=O)O)NC(=O)[C@H](C)NC(=O)[C@H](Cc1ccccc1)NC(=O)[C@H](Cc1ccccc1)N(C)C(=O)[C@@H](NC(=O)[C@H](CC(C)C)N(C)C(=O)[C@H](CCCCN)NC(=O)[C@@H](N)CCC(N)=O)C(C)C)[C@@H](C)CC)[C@@H](C)CC)C(=O)N[C@H](C(=O)NCC(=O)NCC(=O)N[C@H](C(=O)N[C@H](C(=O)O)C(C)C)C(C)C)C(C)C
B1 gave an IC50 of inhibitory effect on IAPP-mediated cell damage (MTT reduction, RIN5fm cells) [1] of 133 nM.

B2: L3-VF (peptide)
peptide: H-QKL[NMeV]F[NMeF]AEDLLLNKGAIIGL[Nle]VGGVV-OH
SMILES: CCCC[C@H](NC(=O)[C@H](CC(C)C)NC(=O)CNC(=O)[C@@H](NC(=O)[C@@H](NC(=O)[C@H](C)NC(=O)CNC(=O)[C@H](CCCCN)NC(=O)[C@H](CC(N)=O)NC(=O)[C@H](CC(C)C)NC(=O)[C@H](CC(C)C)NC(=O)[C@H](CC(C)C)NC(=O)[C@H](CC(=O)O)NC(=O)[C@H](CCC(=O)O)NC(=O)[C@H](C)NC(=O)[C@H](Cc1ccccc1)N(C)C(=O)[C@H](Cc1ccccc1)NC(=O)[C@H](C(C)C)N(C)C(=O)[C@H](CC(C)C)NC(=O)[C@H](CCCCN)NC(=O)[C@@H](N)CCC(N)=O)[C@@H](C)CC)[C@@H](C)CC)C(=O)N[C@H](C(=O)NCC(=O)NCC(=O)N[C@H](C(=O)N[C@H](C(=O)O)C(C)C)C(C)C)C(C)C
In the case of B2, the IC50 of inhibitory effect on IAPP-mediated cell damage (MTT reduction, RIN5fm cells) [1] is reported as 112 nM and the IC50 of inhibitory effect on Aβ42-mediated cell damage (MTT reduction, PC12 cells) [2] is reported as 261 nM.

B3: F3-VF (peptide)
peptide: H-QKL[NMeV]F[NMeF]AEDFFFNKGAIIGL[Nle]VGGVV-OH
SMILES: CCCC[C@H](NC(=O)[C@H](CC(C)C)NC(=O)CNC(=O)[C@@H](NC(=O)[C@@H](NC(=O)[C@H](C)NC(=O)CNC(=O)[C@H](CCCCN)NC(=O)[C@H](CC(N)=O)NC(=O)[C@H](Cc1ccccc1)NC(=O)[C@H](Cc1ccccc1)NC(=O)[C@H](Cc1ccccc1)NC(=O)[C@H](CC(=O)O)NC(=O)[C@H](CCC(=O)O)NC(=O)[C@H](C)NC(=O)[C@H](Cc1ccccc1)N(C)C(=O)[C@H](Cc1ccccc1)NC(=O)[C@H](C(C)C)N(C)C(=O)[C@H](CC(C)C)NC(=O)[C@H](CCCCN)NC(=O)[C@@H](N)CCC(N)=O)[C@@H](C)CC)[C@@H](C)CC)C(=O)N[C@H](C(=O)NCC(=O)NCC(=O)N[C@H](C(=O)N[C@H](C(=O)O)C(C)C)C(C)C)C(C)C
Work on B3 yielded an IC50 of inhibitory effect on IAPP-mediated cell damage (MTT reduction, RIN5fm cells) [1] of 78.5 nM and an IC50 of inhibitory effect on Aβ42-mediated cell damage (MTT reduction, PC12 cells) [2] of 1030 nM.

B4: Nle3-VF (peptide)
peptide: H-QKL[NMeV]F[NMeF]AED[Nle][Nle][Nle]NKGAIIGL[Nle]VGGVV-OH
SMILES: CCCC[C@H](NC(=O)[C@H](CC(=O)O)NC(=O)[C@H](CCC(=O)O)NC(=O)[C@H](C)NC(=O)[C@H](Cc1ccccc1)N(C)C(=O)[C@H](Cc1ccccc1)NC(=O)[C@H](C(C)C)N(C)C(=O)[C@H](CC(C)C)NC(=O)[C@H](CCCCN)NC(=O)[C@@H](N)CCC(N)=O)C(=O)N[C@@H](CCCC)C(=O)N[C@@H](CCCC)C(=O)N[C@@H](CC(N)=O)C(=O)N[C@@H](CCCCN)C(=O)NCC(=O)N[C@@H](C)C(=O)N[C@H](C(=O)N[C@H](C(=O)NCC(=O)N[C@@H](CC(C)C)C(=O)N[C@@H](CCCC)C(=O)N[C@H](C(=O)NCC(=O)NCC(=O)N[C@H](C(=O)N[C@H](C(=O)O)C(C)C)C(C)C)C(C)C)[C@@H](C)CC)[C@@H](C)CC
Work on B4 yielded an IC50 of inhibitory effect on IAPP-mediated cell damage (MTT reduction, RIN5fm cells) [1] of 65 nM and an IC50 of inhibitory effect on Aβ42-mediated cell damage (MTT reduction, PC12 cells) [2] of 367 nM.

B5: F3-LF (peptide)
peptide: H-QK[NMeL]V[NMeF]FAEDFFFNKGAIIGL[Nle]VGGVV-OH
SMILES: CCCC[C@H](NC(=O)[C@H](CC(C)C)NC(=O)CNC(=O)[C@@H](NC(=O)[C@@H](NC(=O)[C@H](C)NC(=O)CNC(=O)[C@H](CCCCN)NC(=O)[C@H](CC(N)=O)NC(=O)[C@H](Cc1ccccc1)NC(=O)[C@H](Cc1ccccc1)NC(=O)[C@H](Cc1ccccc1)NC(=O)[C@H](CC(=O)O)NC(=O)[C@H](CCC(=O)O)NC(=O)[C@H](C)NC(=O)[C@H](Cc1ccccc1)NC(=O)[C@H](Cc1ccccc1)N(C)C(=O)[C@@H](NC(=O)[C@H](CC(C)C)N(C)C(=O)[C@H](CCCCN)NC(=O)[C@@H](N)CCC(N)=O)C(C)C)[C@@H](C)CC)[C@@H](C)CC)C(=O)N[C@H](C(=O)NCC(=O)NCC(=O)N[C@H](C(=O)N[C@H](C(=O)O)C(C)C)C(C)C)C(C)C
B5 gave an IC50 of inhibitory effect on IAPP-mediated cell damage (MTT reduction, RIN5fm cells) [1] of 41.7 nM and an IC50 of inhibitory effect on Aβ42-mediated cell damage (MTT reduction, PC12 cells) [2] of 262 nM.

B6: Nle3-LF (peptide)
peptide: H-QK[NMeL]V[NMeF]FAED[Nle][Nle][Nle]NKGAIIGL[Nle]VGGVV-OH
SMILES: CCCC[C@H](NC(=O)[C@H](CC(=O)O)NC(=O)[C@H](CCC(=O)O)NC(=O)[C@H](C)NC(=O)[C@H](Cc1ccccc1)NC(=O)[C@H](Cc1ccccc1)N(C)C(=O)[C@@H](NC(=O)[C@H](CC(C)C)N(C)C(=O)[C@H](CCCCN)NC(=O)[C@@H](N)CCC(N)=O)C(C)C)C(=O)N[C@@H](CCCC)C(=O)N[C@@H](CCCC)C(=O)N[C@@H](CC(N)=O)C(=O)N[C@@H](CCCCN)C(=O)NCC(=O)N[C@@H](C)C(=O)N[C@H](C(=O)N[C@H](C(=O)NCC(=O)N[C@@H](CC(C)C)C(=O)N[C@@H](CCCC)C(=O)N[C@H](C(=O)NCC(=O)NCC(=O)N[C@H](C(=O)N[C@H](C(=O)O)C(C)C)C(C)C)C(C)C)[C@@H](C)CC)[C@@H](C)CC
With B6 the IC50 of inhibitory effect on IAPP-mediated cell damage (MTT reduction, RIN5fm cells) [1] was 82.1 nM.
